According to the supplement of paper PMC10567573:

B1: ZNF8 (parent)
chain: SLGRHKRTHTGEKPYTCSVCGKSF
B2: TEKT4 (parent)
chain: SEVEELNMSLTALREKLLEAEQSL

Variants of: B1
Experiment: protein stability index of a GFP-peptide fusion (GPS, HEK-293T) (PSI 1-6); higher = more stable
Conditions: c terminus: a fixed tail appended
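Further: lentivirally expressed fusions sorted by FACS into six bins by GFP to DsRed ratio, PSI derived from sequencing read proportions per bin multiplied by bin number.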

First: SLGRHKRTHTGEKPYTCSVCGKSP [F24P]
Second: SLGRHKRTHTGEKPYTCSVCGKSV [F24V]
The protein stability index of the first is higher: 3.5 for the first, 3.27 for the second.

Going from SLGRHKRTHTGEKPYTCSVCGKSM [F24M] to SLGRHKRTHTGEKPYTCSVCGKSN [F24N], the protein stability index rises from 2.85 to 3.27.

Going from SLGRHKRTHTGEKPYTCSVCGKST [F24T] to SLGRHKRTHTGEKPYTCSVCGKSH [F24H], the protein stability index rises from 2.24 to 4.04.

Compared with SLGRHKRTHTGEKPYTCSVCGKSS [F24S], SLGRHKRTHTGEKPYTCSVCGKSK [F24K] is higher in protein stability index: 3.44 for the first, 3.62 for the second.

First: SLGRHKRTHTGEKPYTCSVCGKSY [F24Y]
Second: SLGRHKRTHTGEKPYTCSVCGKSI [F24I]
The protein stability index of the first is lower: 2.45 for the first, 2.92 for the second.

Going from SLGRHKRTHTGEKPYTCSVCGKSL [F24L] to SLGRHKRTHTGEKPYTCSVCGKSQ [F24Q], the protein stability index falls from 3.02 to 2.69.

Going from SLGRHKRTHTGEKPYTCSVCGKSW [F24W] to SLGRHKRTHTGEKPYTCSVCGKSR [F24R], the protein stability index falls from 2.93 to 2.92.

Variants of: B2
Experiment: as above
Conditions: c terminus: a fixed tail appended

Going from SEYEELNMSLTALREKLLEAEQSL [V3Y] to SEHEELNMSLTALREKLLEAEQSL [V3H], the protein stability index rises from 2.95 to 3.29.

Going from SEDEELNMSLTALREKLLEAEQSL [V3D] to SEQEELNMSLTALREKLLEAEQSL [V3Q], the protein stability index falls from 3.64 to 3.4.

First: SENEELNMSLTALREKLLEAEQSL [V3N]
Second: SEPEELNMSLTALREKLLEAEQSL [V3P]
The protein stability index of the first is lower: 2.57 for the first, 3.47 for the second.

Compared with SEMEELNMSLTALREKLLEAEQSL [V3M], SEAEELNMSLTALREKLLEAEQSL [V3A] is higher in protein stability index: 2.63 for the first, 3.61 for the second.

Going from SEEEELNMSLTALREKLLEAEQSL [V3E] to SETEELNMSLTALREKLLEAEQSL [V3T], the protein stability index falls from 3.98 to 2.99.

First: SEFEELNMSLTALREKLLEAEQSL [V3F]
Second: SEKEELNMSLTALREKLLEAEQSL [V3K]
The protein stability index of the first is higher: 2.83 for the first, 2.45 for the second.

Going from SEIEELNMSLTALREKLLEAEQSL [V3I] to SELEELNMSLTALREKLLEAEQSL [V3L], the protein stability index rises from 3.16 to 3.51.

First: SECEELNMSLTALREKLLEAEQSL [V3C]
Second: SESEELNMSLTALREKLLEAEQSL [V3S]
The protein stability index of the first is higher: 3.39 for the first, 3.29 for the second.

First: SEREELNMSLTALREKLLEAEQSL [V3R]
Second: SEGEELNMSLTALREKLLEAEQSL [V3G]
The protein stability index of the first is lower: 2.83 for the first, 3.67 for the second.

First: SEWEELNMSLTALREKLLEAEQSL [V3W]
Second: SEVEELNCSLTALREKLLEAEQSL [M8C]
The protein stability index of the first is higher: 2.4 for the first, 2.27 for the second.

Compared with SEVEELNDSLTALREKLLEAEQSL [M8D], SEVEELNRSLTALREKLLEAEQSL [M8R] is lower in protein stability index: 3.5 for the first, 2.12 for the second.

Compared with SEVEELNISLTALREKLLEAEQSL [M8I], SEVEELNSSLTALREKLLEAEQSL [M8S] is lower in protein stability index: 3.17 for the first, 2.81 for the second.

Compared with SEVEELNTSLTALREKLLEAEQSL [M8T], SEVEELNGSLTALREKLLEAEQSL [M8G] is higher in protein stability index: 3.25 for the first, 4.32 for the second.

Compared with SEVEELNNSLTALREKLLEAEQSL [M8N], SEVEELNVSLTALREKLLEAEQSL [M8V] is higher in protein stability index: 2.41 for the first, 3.77 for the second.

Going from SEVEELNKSLTALREKLLEAEQSL [M8K] to SEVEELNLSLTALREKLLEAEQSL [M8L], the protein stability index rises from 2.77 to 3.36.

Going from SEVEELNPSLTALREKLLEAEQSL [M8P] to SEVEELNHSLTALREKLLEAEQSL [M8H], the protein stability index falls from 3.99 to 2.96.

Going from SEVEELNWSLTALREKLLEAEQSL [M8W] to SEVEELNESLTALREKLLEAEQSL [M8E], the protein stability index rises from 2.28 to 3.29.

Going from SEVEELNQSLTALREKLLEAEQSL [M8Q] to SEVEELNASLTALREKLLEAEQSL [M8A], the protein stability index rises from 2.56 to 2.9.

Going from SEVEELNYSLTALREKLLEAEQSL [M8Y] to SEVEELNFSLTALREKLLEAEQSL [M8F], the protein stability index rises from 2.37 to 3.02.

Compared with SEVEEANMSLTALREKLLEAEQSL [L6A], SEVEEVNMSLTALREKLLEAEQSL [L6V] is lower in protein stability index: 3.81 for the first, 3.58 for the second.

First: SEVEEINMSLTALREKLLEAEQSL [L6I]
Second: SEVEEKNMSLTALREKLLEAEQSL [L6K]
The protein stability index of the first is lower: 2.76 for the first, 3.75 for the second.

Compared with SEVEEQNMSLTALREKLLEAEQSL [L6Q], SEVEECNMSLTALREKLLEAEQSL [L6C] is higher in protein stability index: 3.51 for the first, 3.71 for the second.

Going from SEVEESNMSLTALREKLLEAEQSL [L6S] to SEVEEENMSLTALREKLLEAEQSL [L6E], the protein stability index rises from 3.71 to 4.33.

Compared with SEVEEFNMSLTALREKLLEAEQSL [L6F], SEVEERNMSLTALREKLLEAEQSL [L6R] is lower in protein stability index: 3 for the first, 2.87 for the second.

First: SEVEETNMSLTALREKLLEAEQSL [L6T]
Second: SEVEEWNMSLTALREKLLEAEQSL [L6W]
The protein stability index of the first is higher: 3.02 for the first, 2.95 for the second.

Compared with SEVEEHNMSLTALREKLLEAEQSL [L6H], SEVEEYNMSLTALREKLLEAEQSL [L6Y] is lower in protein stability index: 3.31 for the first, 2.6 for the second.

Compared with SEVEEMNMSLTALREKLLEAEQSL [L6M], SEVEENNMSLTALREKLLEAEQSL [L6N] is higher in protein stability index: 3.47 for the first, 3.89 for the second.

Compared with SEVEEGNMSLTALREKLLEAEQSL [L6G], SEVEEPNMSLTALREKLLEAEQSL [L6P] is higher in protein stability index: 3.95 for the first, 3.99 for the second.

First: SEVEEDNMSLTALREKLLEAEQSL [L6D]
Second: SEVEELHMSLTALREKLLEAEQSL [N7H]
The protein stability index of the first is higher: 4.41 for the first, 2.43 for the second.

First: SEVEELEMSLTALREKLLEAEQSL [N7E]
Second: SEVEELPMSLTALREKLLEAEQSL [N7P]
The protein stability index of the first is lower: 2.56 for the first, 3.42 for the second.

Compared with SEVEELKMSLTALREKLLEAEQSL [N7K], SEVEELFMSLTALREKLLEAEQSL [N7F] is lower in protein stability index: 2.84 for the first, 1.89 for the second.

Going from SEVEELIMSLTALREKLLEAEQSL [N7I] to SEVEELMMSLTALREKLLEAEQSL [N7M], the protein stability index falls from 3.09 to 2.31.

First: SEVEELCMSLTALREKLLEAEQSL [N7C]
Second: SEVEELQMSLTALREKLLEAEQSL [N7Q]
The protein stability index of the first is lower: 2.48 for the first, 2.67 for the second.

First: SEVEELDMSLTALREKLLEAEQSL [N7D]
Second: SEVEELRMSLTALREKLLEAEQSL [N7R]
The protein stability index of the first is lower: 3.24 for the first, 3.92 for the second.

Compared with SEVEELLMSLTALREKLLEAEQSL [N7L], SEVEELGMSLTALREKLLEAEQSL [N7G] is higher in protein stability index: 2.31 for the first, 2.94 for the second.

Compared with SEVEELVMSLTALREKLLEAEQSL [N7V], SEVEELSMSLTALREKLLEAEQSL [N7S] is higher in protein stability index: 1.95 for the first, 2.97 for the second.

Going from SEVEELWMSLTALREKLLEAEQSL [N7W] to SEVEELTMSLTALREKLLEAEQSL [N7T], the protein stability index rises from 2.1 to 2.63.

First: SEVEELAMSLTALREKLLEAEQSL [N7A]
Second: SEVEELYMSLTALREKLLEAEQSL [N7Y]
The protein stability index of the first is lower: 2.35 for the first, 3.42 for the second.

Going from SEVEELNMSDTALREKLLEAEQSL [L10D] to SEVEELNMSETALREKLLEAEQSL [L10E], the protein stability index falls from 4.03 to 3.55.

Going from SEVEELNMSATALREKLLEAEQSL [L10A] to SEVEELNMSCTALREKLLEAEQSL [L10C], the protein stability index falls from 3.75 to 3.15.
